B1: ZNF449 (parent)
chain: TLHQRTHTEERPFKCNYCGKSFRQ
B2: VTI1B (parent)
chain: NKLLLSIIILLELAILGGLVYYKF

Variants of: B1
Experiment: protein stability index of a GFP-peptide fusion (GPS, HEK-293T) (PSI 1-6); higher = more stable
Conditions: c terminus: a fixed tail appended
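Further: lentivirally expressed fusions sorted by FACS into six bins by GFP to DsRed ratio, PSI derived from sequencing read proportions per bin multiplied by bin number.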

Protein stability index of substitutions, site by site:
Q24: A 2.55; W 2.12; L 2.36; P 2.87; Y 3.2; T 2.75; I 1.68; C 1.84
R23: Y 2.72; C 4.7; W 2.29; Q 2.16; M 2.8; G 2.27; V 2.15; P 2.58; I 3.2; T 2.7; A 2.69; S 2.67; K 2.97; N 2.35; D 3; F 2.21; E 3.53; H 2.79; L 2.4
C18: E 3.78; F 2.85; N 3.68; R 3.38; T 3.4; P 2.91; H 2.96; I 2.92; G 3.02; Q 2.26; V 2.12; A 3.61; S 3.17; K 3.12; W 2.33; L 2.61; D 3.48; M 2.72; Y 2.43
K14: M 2.2; F 2.85; C 2.71; P 2.83; H 2.31; L 1.73; I 2.27; W 2.1; N 1.95; D 2.41; Q 2.22; Y 1.93; S 2.34; T 1.9

Variants of: B2
Experiment: as above
Conditions: c terminus: a fixed tail appended

Protein stability index: each site, then its substitutions
K2: S 2.46; D 2.35; C 2.17; F 3.52; A 3.74; E 2; H 2.48; W 2.8; Q 4.47; I 3.89; R 2.99; N 1.92; Y 3.38; M 2.6; T 2.66; P 2.43; V 3.38
S6: Q 3.32; D 2.42; A 3.54; W 2.11; N 2.47; K 2.63; E 3.51; C 3.11; T 3.52; F 2.67; R 3.55; L 2.02; G 1.88; V 2.5; H 2.51; P 3.12; M 2.86; I 1.85; Y 2.76
I7: A 2.32
L3: N 3.2; K 1.85; Q 2.99; E 2.84; H 3.76; I 2.78; T 2.98; G 2.83; R 3.98; A 2.92; W 2.79; C 2.54; V 3.79; P 3.24; D 3.73; S 1.78; Y 3.55; M 2.52
L5: C 2.61; E 4.19; K 2.14; T 3.88; Y 3.05; I 3.01; W 1.86; N 3.71; F 2.55; V 2.08; D 2.64; Q 4.28; H 3.13; A 2.22; P 2.39; R 1.8
N1: P 1.77; R 2.99; M 2.75; Y 2.36; H 3.67; I 2.97; G 3.29; W 3.84; K 1.85; V 2.54; S 2.63; E 4.24; A 3.04; L 2.74; D 3; T 3.56; F 2.82; Q 2.12; C 3.66
L4: K 2.39; I 2.94; M 1.8; W 2.25; T 1.51; V 2.82; E 2.47; C 2.35; Q 3.91; A 3.17; F 3.51; D 3.75; N 2.28; S 2.38; H 3.22; G 2.29; Y 2.34

— the supplement of paper PMC10567573
